What all share (experiment): cell-based or functional assay
Assay [1] has as its target T1, N-terminally Hexa-His-tagged KDM4A (residues 1–359) (human, UniProt O75164 1-359).
T1 sequence (looked up): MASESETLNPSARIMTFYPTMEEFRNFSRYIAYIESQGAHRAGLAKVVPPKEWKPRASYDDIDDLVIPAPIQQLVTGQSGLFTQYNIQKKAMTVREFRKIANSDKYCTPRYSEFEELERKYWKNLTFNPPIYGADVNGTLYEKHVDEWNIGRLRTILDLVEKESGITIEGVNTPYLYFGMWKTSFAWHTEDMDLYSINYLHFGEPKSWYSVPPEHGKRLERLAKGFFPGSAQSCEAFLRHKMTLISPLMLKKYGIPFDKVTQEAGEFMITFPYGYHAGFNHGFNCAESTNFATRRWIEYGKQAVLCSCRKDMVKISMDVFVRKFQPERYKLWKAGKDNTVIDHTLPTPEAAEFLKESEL

The target in another assay is KDM5C (human, UniProt P41229 1-1560).
The target in a further assay is KDM1A (human, UniProt O60341 1-852).
The target of assay [2] is prolyl hydroxylase domain 2 (UniProt Q9GZT9 1-426).
The target in a further assay is T2, KDM4B (human, UniProt O94953 1-1096).
T2 sequence (looked up): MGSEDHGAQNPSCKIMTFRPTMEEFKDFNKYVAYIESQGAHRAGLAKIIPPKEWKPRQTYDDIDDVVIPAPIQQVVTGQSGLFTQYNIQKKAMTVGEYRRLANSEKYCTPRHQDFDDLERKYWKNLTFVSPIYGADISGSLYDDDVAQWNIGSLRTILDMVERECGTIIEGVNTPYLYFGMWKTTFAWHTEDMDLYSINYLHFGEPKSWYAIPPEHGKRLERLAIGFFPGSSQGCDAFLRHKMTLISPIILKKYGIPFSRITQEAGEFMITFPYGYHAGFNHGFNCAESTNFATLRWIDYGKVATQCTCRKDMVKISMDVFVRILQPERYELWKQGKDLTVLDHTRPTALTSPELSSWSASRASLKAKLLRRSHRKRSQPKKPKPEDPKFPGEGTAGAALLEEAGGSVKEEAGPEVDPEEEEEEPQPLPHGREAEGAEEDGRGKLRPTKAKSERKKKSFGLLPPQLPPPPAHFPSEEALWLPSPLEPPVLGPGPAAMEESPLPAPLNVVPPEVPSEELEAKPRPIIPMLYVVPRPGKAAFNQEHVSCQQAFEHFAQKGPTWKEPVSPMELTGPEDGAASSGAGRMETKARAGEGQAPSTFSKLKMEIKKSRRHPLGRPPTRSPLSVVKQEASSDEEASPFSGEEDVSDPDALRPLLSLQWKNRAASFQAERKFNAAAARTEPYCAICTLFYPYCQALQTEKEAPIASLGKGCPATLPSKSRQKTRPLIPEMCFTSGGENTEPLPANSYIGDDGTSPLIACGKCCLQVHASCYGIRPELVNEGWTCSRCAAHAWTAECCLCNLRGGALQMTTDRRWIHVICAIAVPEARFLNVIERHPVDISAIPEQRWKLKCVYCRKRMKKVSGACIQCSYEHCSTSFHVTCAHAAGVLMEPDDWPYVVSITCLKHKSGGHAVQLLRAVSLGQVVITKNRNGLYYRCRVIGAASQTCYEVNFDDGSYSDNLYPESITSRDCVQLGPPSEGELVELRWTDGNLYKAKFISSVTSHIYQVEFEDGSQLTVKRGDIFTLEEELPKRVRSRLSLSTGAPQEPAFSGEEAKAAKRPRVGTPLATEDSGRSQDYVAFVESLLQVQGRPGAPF

Another assay addresses T3, KDM4C (human, UniProt Q9H3R0 1-1056).
T3 sequence (looked up): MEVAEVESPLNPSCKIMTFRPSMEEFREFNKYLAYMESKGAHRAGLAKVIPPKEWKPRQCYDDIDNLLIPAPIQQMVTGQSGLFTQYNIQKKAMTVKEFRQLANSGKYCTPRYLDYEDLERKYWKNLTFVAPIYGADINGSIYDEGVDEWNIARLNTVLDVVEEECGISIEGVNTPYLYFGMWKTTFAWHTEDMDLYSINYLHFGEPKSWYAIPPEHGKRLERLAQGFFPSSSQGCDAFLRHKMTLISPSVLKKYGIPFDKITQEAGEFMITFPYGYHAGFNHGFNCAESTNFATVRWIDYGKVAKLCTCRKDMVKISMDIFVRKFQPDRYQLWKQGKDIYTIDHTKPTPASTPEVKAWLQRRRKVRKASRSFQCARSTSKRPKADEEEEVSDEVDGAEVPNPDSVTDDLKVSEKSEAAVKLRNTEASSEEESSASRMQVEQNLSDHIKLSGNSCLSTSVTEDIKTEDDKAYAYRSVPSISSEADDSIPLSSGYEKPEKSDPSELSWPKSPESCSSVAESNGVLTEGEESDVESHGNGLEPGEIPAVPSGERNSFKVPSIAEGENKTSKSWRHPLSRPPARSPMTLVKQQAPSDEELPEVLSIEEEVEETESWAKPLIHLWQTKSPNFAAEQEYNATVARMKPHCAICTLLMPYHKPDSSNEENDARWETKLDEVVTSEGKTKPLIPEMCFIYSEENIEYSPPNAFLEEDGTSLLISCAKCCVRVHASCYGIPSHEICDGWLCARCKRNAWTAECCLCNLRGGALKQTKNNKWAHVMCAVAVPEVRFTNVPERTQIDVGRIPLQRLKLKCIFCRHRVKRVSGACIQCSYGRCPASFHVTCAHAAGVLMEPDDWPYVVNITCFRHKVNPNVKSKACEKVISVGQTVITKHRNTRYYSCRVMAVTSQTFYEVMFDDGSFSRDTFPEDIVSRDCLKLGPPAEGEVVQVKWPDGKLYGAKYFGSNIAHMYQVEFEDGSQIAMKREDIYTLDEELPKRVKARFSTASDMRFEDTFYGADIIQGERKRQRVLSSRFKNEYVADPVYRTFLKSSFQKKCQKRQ

Data on one molecule can be found in PMC5384220, “Highly selective inhibition of histone demethylases by de novo macrocyclic peptides” (Nature Communications, 2017).

Chain of prolyl hydroxylase domain 2 (Q9GZT9 whole entry, the tested form may be a part): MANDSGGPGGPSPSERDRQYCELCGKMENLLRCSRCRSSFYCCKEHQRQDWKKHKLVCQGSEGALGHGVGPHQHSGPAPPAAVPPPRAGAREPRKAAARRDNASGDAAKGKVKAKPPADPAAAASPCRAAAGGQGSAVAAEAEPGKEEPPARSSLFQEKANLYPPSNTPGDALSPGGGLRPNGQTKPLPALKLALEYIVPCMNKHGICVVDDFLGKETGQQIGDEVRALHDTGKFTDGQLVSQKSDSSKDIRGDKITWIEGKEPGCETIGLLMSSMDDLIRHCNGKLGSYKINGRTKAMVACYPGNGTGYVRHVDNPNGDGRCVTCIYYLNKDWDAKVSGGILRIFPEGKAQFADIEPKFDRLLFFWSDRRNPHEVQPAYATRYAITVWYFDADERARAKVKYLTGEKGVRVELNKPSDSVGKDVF
Chain of KDM5C (P41229 whole entry): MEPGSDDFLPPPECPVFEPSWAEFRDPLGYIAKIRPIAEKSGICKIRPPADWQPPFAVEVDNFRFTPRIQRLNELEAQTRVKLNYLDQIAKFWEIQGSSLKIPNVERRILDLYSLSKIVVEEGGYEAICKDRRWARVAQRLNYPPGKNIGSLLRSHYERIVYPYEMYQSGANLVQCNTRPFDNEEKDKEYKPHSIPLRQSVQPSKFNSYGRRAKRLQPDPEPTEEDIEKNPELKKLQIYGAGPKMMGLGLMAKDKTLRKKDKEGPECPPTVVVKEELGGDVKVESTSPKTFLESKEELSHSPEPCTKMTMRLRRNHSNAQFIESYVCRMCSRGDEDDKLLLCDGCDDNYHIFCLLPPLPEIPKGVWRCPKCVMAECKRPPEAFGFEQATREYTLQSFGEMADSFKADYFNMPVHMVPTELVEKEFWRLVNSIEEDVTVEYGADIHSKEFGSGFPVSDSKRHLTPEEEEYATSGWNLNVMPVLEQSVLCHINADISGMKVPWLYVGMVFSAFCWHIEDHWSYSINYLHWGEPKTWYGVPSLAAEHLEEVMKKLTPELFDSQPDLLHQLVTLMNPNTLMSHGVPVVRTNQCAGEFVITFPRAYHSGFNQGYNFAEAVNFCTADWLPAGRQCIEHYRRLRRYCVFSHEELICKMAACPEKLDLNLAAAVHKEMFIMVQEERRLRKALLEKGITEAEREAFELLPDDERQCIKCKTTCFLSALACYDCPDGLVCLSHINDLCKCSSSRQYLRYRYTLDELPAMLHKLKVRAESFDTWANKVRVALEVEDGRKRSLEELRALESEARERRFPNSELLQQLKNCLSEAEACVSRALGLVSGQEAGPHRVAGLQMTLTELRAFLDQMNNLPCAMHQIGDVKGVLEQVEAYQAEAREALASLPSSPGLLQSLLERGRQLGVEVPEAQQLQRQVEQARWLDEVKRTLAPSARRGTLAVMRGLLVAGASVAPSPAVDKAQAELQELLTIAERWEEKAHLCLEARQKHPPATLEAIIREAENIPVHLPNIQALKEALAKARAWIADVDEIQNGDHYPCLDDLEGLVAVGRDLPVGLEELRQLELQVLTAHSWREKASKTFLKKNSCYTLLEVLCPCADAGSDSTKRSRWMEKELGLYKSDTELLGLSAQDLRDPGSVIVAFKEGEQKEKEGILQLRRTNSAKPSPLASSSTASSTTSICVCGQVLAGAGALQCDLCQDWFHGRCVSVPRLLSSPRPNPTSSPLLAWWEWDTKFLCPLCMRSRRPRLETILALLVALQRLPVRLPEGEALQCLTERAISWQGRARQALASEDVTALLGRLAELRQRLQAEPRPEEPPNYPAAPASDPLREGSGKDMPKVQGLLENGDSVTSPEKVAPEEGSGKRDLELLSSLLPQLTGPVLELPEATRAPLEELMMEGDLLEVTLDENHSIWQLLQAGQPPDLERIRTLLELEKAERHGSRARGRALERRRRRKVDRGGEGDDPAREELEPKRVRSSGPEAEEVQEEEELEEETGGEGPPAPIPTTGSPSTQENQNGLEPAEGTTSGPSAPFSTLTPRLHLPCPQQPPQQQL

B1: CP4 (peptide)
chain: YLKSRRSGLTWIPC
modifications: not fully specified; N-terminal L-Tyr (^LTyr library, N-chloroacetyl-L-Tyr) cyclised by a thioether to a downstream cysteine
Consider B1, for which the “IC50 of inhibition of demethylase activity (AlphaScreen activity assay)” value was 0.02 µM in assay [1], > 10 µM with KDM5C, 0.006 µM with KDM4B and 0.017 µM in the assay with KDM4C. Further, the “IC50 of inhibition of KDM1A/LSD1 (fluorescence-based assay)” value in the assay with KDM1A is > 10 µM. The “IC50 of inhibition of PHD2 (MALDI–TOF MS assay)” value in assay [2] is > 1000 µM.
